# Results: IntAct's records for PubMed 29477555
# B1: Serine protease HTRA3 (Homo sapiens), P83110-1 (parent)
# chain: MQARALLLAALAALALAREPPAAPCPARCDVSRCPSPRCPGGYVPDLCNCCLVCAASEGEPCGGPLDSPCGESLECVRGLCRCRWSHAVCGTDGHTYANVCALQAASRRALQLSGTPVRQLQKGACPLGLHQLSSPRYKFNFIADVVEKIAPAVVHIELFLRHPLFGRNVPLSSGSGFIMSEAGLIITNAHVVSSNSAAPGRQQLKVQLQNGDSYEATIKDIDKKSDIATIKIHPKKKLPVLLLGHSADLRPGEFVVAIGSPFALQNTVTTGIVSTAQREGRELGLRDSDMDYIQTDAIINYGNSGGPLVNLDGEVIGINTLKVTAGISFAIPSDRITRFLTEFQDKQIKDWKKRFIGIRMRTITPSLVDELKASNPDFPEVSSGIYVQEVAPNSPSQRGGIQDGDIIVKVNGRPLVDSSELQEAVLTESPLLLEVRRGNDDLLFSIAPEVVM
# B2: Serine protease HTRA3 (Homo sapiens), P83110-2 (parent)
# chain: MQARALLLAALAALALAREPPAAPCPARCDVSRCPSPRCPGGYVPDLCNCCLVCAASEGEPCGGPLDSPCGESLECVRGLCRCRWSHAVCGTDGHTYANVCALQAASRRALQLSGTPVRQLQKGACPLGLHQLSSPRYKFNFIADVVEKIAPAVVHIELFLRHPLFGRNVPLSSGSGFIMSEAGLIITNAHVVSSNSAAPGRQQLKVQLQNGDSYEATIKDIDKKSDIATIKIHPKKKLPVLLLGHSADLRPGEFVVAIGSPFALQNTVTTGIVSTAQREGRELGLRDSDMDYIQTDAIINYGNSGGPLVNLDGEVIGINTLKVTAGISFAIPSDRITRFLTEFQDKQIKAPSLAVH
# Variants of: B1
# Conditions: with tcpa_human TCP1, P17987
row,Variant,effect of a mutation on the interaction
1,MQARALLLAALAALALAREPPAAPCPARCDVSRCPSPRCPGGYVPDLCNCCLVCAASEGEPCGGPLDSPCGESLECVRGLCRCRWSHAVCGTDGHTYANVCALQAASRRALQLSGTPVRQLQKGACPLGLHQLSSPRYKFNFIADVVEKIAPAVVHIELFLRHPLFGRNVPLSSGSGFIMSEAGLIITNAHVVSSNSAAPGRQQLKVQLQNGDSYEATIKDIDKKSDIATIKIHPKKKLPVLLLGHSADLRPGEFVVAIGSPFALQNTVTTGIVSTAQREGRELGLRDSDMDYIQTDAIINYGNAGGPLVNLDGEVIGINTLKVTAGISFAIPSDRITRFLTEFQDKQIKDWKKRFIGIRMRTITPSLVDELKASNPDFPEVSSGIYVQEVAPNSPSQRGGIQDGDIIVKVNGRPLVDSSELQEAVLTESPLLLEVRRGNDDLLFSIAPEVVM [S305A],decreasing interaction strength

# Variants of: B2
# Conditions: with tcpa_human TCP1, P17987
# Target sequence in this assay (P17987 whole entry): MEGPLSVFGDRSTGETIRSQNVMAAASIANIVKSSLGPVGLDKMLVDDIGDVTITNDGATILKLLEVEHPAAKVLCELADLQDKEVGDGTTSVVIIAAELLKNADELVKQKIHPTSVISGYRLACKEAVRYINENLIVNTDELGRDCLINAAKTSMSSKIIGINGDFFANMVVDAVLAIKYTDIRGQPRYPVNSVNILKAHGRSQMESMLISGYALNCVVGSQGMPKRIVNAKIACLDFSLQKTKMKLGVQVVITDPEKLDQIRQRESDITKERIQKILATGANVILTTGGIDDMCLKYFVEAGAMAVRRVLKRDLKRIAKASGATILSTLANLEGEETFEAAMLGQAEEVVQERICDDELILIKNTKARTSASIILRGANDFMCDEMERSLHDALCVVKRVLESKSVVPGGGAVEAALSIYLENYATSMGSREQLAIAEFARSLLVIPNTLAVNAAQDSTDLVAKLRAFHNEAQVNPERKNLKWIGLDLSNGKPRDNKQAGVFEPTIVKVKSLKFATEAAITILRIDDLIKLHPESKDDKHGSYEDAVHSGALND
row,Variant,effect of a mutation on the interaction
1,MQARALLLAALAALALAREPPAAPCPARCDVSRCPSPRCPGGYVPDLCNCCLVCAASEGEPCGGPLDSPCGESLECVRGLCRCRWSHAVCGTDGHTYANVCALQAASRRALQLSGTPVRQLQKGACPLGLHQLSSPRYKFNFIADVVEKIAPAVVHIELFLRHPLFGRNVPLSSGSGFIMSEAGLIITNAHVVSSNSAAPGRQQLKVQLQNGDSYEATIKDIDKKSDIATIKIHPKKKLPVLLLGHSADLRPGEFVVAIGSPFALQNTVTTGIVSTAQREGRELGLRDSDMDYIQTDAIINYGNAGGPLVNLDGEVIGINTLKVTAGISFAIPSDRITRFLTEFQDKQIKAPSLAVH [S305A],decreasing interaction strength
